Data from the supplement of paper PMC10126150.
± gives the standard deviation of the averaged measurements.

Tested on: ATP
Assay: switch fluorescence ratio, 500 uM ATP over buffer (Cy3 cluster intensity, sum of 5 cycles each) (fold (ratio)); higher = stronger signal-on switching upon ATP binding; sequences stand for … in TCGTCGGCAGCGTCAGATGTGTATAAGAGACAGTTTTTTTTTTTTTTTTTTTTTTTTT…TC
Settings: aptamer strand: ATP DNA aptamer (quencher-CACCTGGGGGAGTATTGCGGAGGAAGG + anchor), 100 nM annealed; ATP concentration: 500 uM
Outline: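 Exposure to 500 uM ATP lasted 15 min at 22 °C before imaging, and a selection-buffer image was taken beforehand, for Cy3-labelled switching-strand clusters on a modified Illumina MiSeq flow-cell annealed to 100 nM quencher-labelled ATP aptamer. Five buffer/ATP cycles were run with NaOH stripping and re-annealing between them. The fluorescence ratio per cluster is summed target-cycle over summed buffer-cycle Cy3 intensity, averaged per switch-domain sequence. Clusters outside 100-1000 RFU were excluded.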

| Sequence | switch fluorescence ratio |
| --- | --- |
| TTATTAAGCT | 1.01 ± 0.027 |
| CATTTCAGG | 1.05 ± 0.033 |
| GTACTGTCTC | 0.9929 ± 0.0049 |
| ATTGAATTTT | 0.9795 ± 0.0038 |
| GGCCCGGAGC | 1.24 ± 0.013 |
| GTTAAAAGGG | 1.01 ± 0.028 |
| TTATCAGGGG | 1.08 ± 0.12 |
| ACAGGTAGGT | 1 ± 0.055 |
| GGGGTAAAGT | 1.01 ± 0.028 |
| TATTTGTTAG | 0.997 ± 0.031 |
| TAATAAGTTT | 1.0262 ± 0.00033 |
| ACACTTGAAT | 0.996 ± 0.027 |
| TTTTTAATCG | 1.01 ± 0.032 |
| GAGGGCTCTT | 1.05 ± 0.029 |
| TTTTGACTTT | 0.998 ± 0.023 |
| TTGAGTGGGT | 0.99 ± 0.042 |
| TGTCACTGTG | 0.979 ± 0.049 |
| TTACCGAGGT | 1.03 ± 0.031 |
| TGACGGGTAC | 1.87 ± 0.087 |
| TACTCAGAGG | 1.04 ± 0.021 |
| TTTAGGGTTA | 1.01 ± 0.016 |
| TTGGAGTCTG | 0.994 ± 0.015 |
| TACCTAATTA | 1.04 ± 0.046 |
| TTTTTATGGA | 1.03 ± 0.027 |
| ATGCGGTCGG | 1.02 ± 0.045 |

| Sequence | switch fluorescence ratio |
| --- | --- |
| ATAGGCTGTT | 0.986 ± 0.038 |
| ATCGTTATTA | 1.02 ± 0.018 |
| TCGTGAGCGG | 0.996 ± 0.034 |
| GATTGTTCTG | 0.9804 ± 0.0049 |
| GAAGGTTCGT | 1 ± 0.034 |
| CGGCCTGATA | 1.01 ± 0.028 |
| CTTATGATTT | 0.998 ± 0.033 |
| TTTGTTGGGC | 0.981 ± 0.028 |
| GGTTTCATGA | 1.01 ± 0.026 |
| GCAGTATGCT | 1.01 ± 0.062 |
| GAAGGCGGAT | 1.01 ± 0.018 |
| TTTGTTACGG | 0.978 ± 0.046 |
| GGCCAAGGGT | 1.03 ± 0.0039 |
| ATTGAAGGGC | 0.9661 ± 0.0093 |
| TAGGTGCTTC | 1.029 ± 0.0099 |
| TCAGGCGTTG | 0.971 ± 0.027 |
| AGATAGGGGA | 1.01 ± 0.025 |
| AGTTGGGCAT | 0.995 ± 0.017 |
| TTAAGACTTT | 1.02 ± 0.032 |
| ACGTGGAGGA | 1.054 ± 0.0031 |
| GATAGACTCT | 0.975 ± 0.029 |
| TCTAGGAGGG | 0.998 ± 0.016 |
| TTGGGTGGTT | 0.9815 ± 0.0026 |
| CGGAAGATTA | 0.9588 ± 0.0045 |
| TGCTATTAGG | 0.979 ± 0.045 |

| Sequence | switch fluorescence ratio |
| --- | --- |
| CTTAAAGAGT | 0.964 ± 0.043 |
| CTAATTGCGG | 1.01 ± 0.013 |
| TATATGTTTT | 0.968 ± 0.013 |
| CGTGCTGGCA | 1.019 ± 0.0064 |
| GGATGGAGGT | 1 ± 0.023 |
| TGTGGGTGAG | 1 ± 0.02 |
| GCGGTGGCGG | 0.987 ± 0.039 |
| AGAATATTCT | 0.98 ± 0.014 |
| GTGGTAGGTA | 0.998 ± 0.021 |
| TGAGTGTGTT | 0.962 ± 0.026 |
| GGATGAAAG | 0.99 ± 0.014 |
| GGATGGAAAT | 1.04 ± 0.012 |
| GTTTTTAGAA | 0.994 ± 0.031 |
| GGTAGAAGGG | 0.989 ± 0.042 |
| TTCCGTTTTT | 1.51 ± 0.66 |
| TTTACTTTTT | 1.01 ± 0.027 |
| CCAGAACTTA | 1.03 ± 0.026 |
| AGGCCTGGG | 1 ± 0.016 |
| ACGCCTTAGG | 1.05 ± 0.038 |
| CATGTTGAAG | 0.986 ± 0.077 |
| GACTATTTGG | 1.02 ± 0.044 |
| TTACCCTATA | 1.07 ± 0.029 |
| AAATTCCTAC | 1.01 ± 0.015 |
| CGGATTCGAT | 1.01 ± 0.011 |
| AGGGTCTTTA | 0.999 ± 0.012 |

| Sequence | switch fluorescence ratio |
| --- | --- |
| TCACCAGGGG | 1.76 ± 0.72 |
| TGTTTTTGGG | 0.989 ± 0.029 |
| AGTTACGGGA | 1.1 ± 0.03 |
| ACATGCGCGG | 0.9999 ± 0.0079 |
| ATCGGAGGAA | 1.17 ± 0.061 |
| TGATTGTGGC | 0.9557 ± 0.0095 |
| AATTCTTGGG | 0.981 ± 0.018 |
| AGAGGCTGAA | 1 ± 0.012 |
| GGGGTTGTTG | 0.988 ± 0.035 |
| TTGGTTTGGT | 0.988 ± 0.03 |
| GCCTGAGGGA | 1.05 ± 0.049 |
| GGGAAGGTAG | 0.995 ± 0.058 |
| TGGGCAGGCT | 0.998 ± 0.044 |
| TTGAGTACTA | 1.01 ± 0.022 |
| ATTTTGCGTT | 0.998 ± 0.031 |
| TTATTTTTTG | 1 ± 0.056 |
| CGGTTTCAAG | 0.972 ± 0.042 |
| GGAGTACGGG | 0.999 ± 0.032 |
| TTGGTTTAGT | 1.01 ± 0.025 |
| CGTGAGAGCA | 1.01 ± 0.035 |
| TTATTTTTA | 0.9699 ± 0.0017 |
| TAATAAGGAG | 1.004 ± 0.0074 |
| GGTTTGCTAG | 1.04 ± 0.072 |
| GTTGGTGGGG | 0.957 ± 0.035 |
| ACTTACATGG | 1.23 ± 0.06 |

| Sequence | switch fluorescence ratio |
| --- | --- |
| TTTTTTCCCG | 1.09 ± 0.11 |
| GCGGAAAGGG | 0.992 ± 0.021 |
| TTTTGTGAGT | 1.01 ± 0.04 |
| TATGGTTTTC | 1.01 ± 0.084 |
| ACGTTGGATT | 1.01 ± 0.014 |
| TCCAAGGGTG | 1.46 ± 0.15 |
| TCGGATTCGA | 1.015 ± 0.0092 |
| CGAGTGGAGG | 1.03 ± 0.011 |
| AAATGTTTTT | 0.999 ± 0.028 |
| CCAGGGCGAA | 1.064 ± 0.0056 |
| TACTTATCCT | 1.05 ± 0.042 |
| ACACTCGTCT | 1.009 ± 0.0051 |
| TGGGACCAGG | 1.05 ± 0.03 |
| TGTTTTAGCT | 0.973 ± 0.021 |
| TTTTGTTCTT | 0.984 ± 0.012 |
| TCTTAGATGA | 0.9765 ± 0.003 |
| GTTATTGCGT | 0.982 ± 0.05 |
| ATATAAAGGG | 0.996 ± 0.025 |
| CTCCATGGTT | 1.06 ± 0.024 |
| TTTATTGTT | 0.99 ± 0.018 |
| TATAGGTTT | 1.01 ± 0.02 |
| TGGATTGGGG | 0.978 ± 0.059 |
| TCATTGGTAG | 1.001 ± 0.0054 |
| TTTAACATAT | 1.022 ± 0.004 |
| GGGCGATGTT | 0.984 ± 0.04 |

| Sequence | switch fluorescence ratio |
| --- | --- |
| CTGGTGGGTC | 1.01 ± 0.018 |
| CGAAGGGAAA | 1.12 ± 0.19 |
| GCCCAATAAG | 1.03 ± 0.025 |
| GGTTCATTTT | 1.01 ± 0.025 |
| TTATTTCCGG | 1.01 ± 0.028 |
| CATAGGTTCT | 0.986 ± 0.023 |
| AATGCACTCG | 1.04 ± 0.05 |
| GGTGGAGGTT | 1.02 ± 0.051 |
| ATCAGGATGC | 1.04 ± 0.063 |
| GAGAGGGGTC | 1.01 ± 0.045 |
| ACTCGTCACA | 1.15 ± 0.059 |
| TTGCTACACG | 1.04 ± 0.02 |
| TGACGGCGGA | 1.02 ± 0.023 |
| AGAGTCCGCT | 1.18 ± 0.084 |
| GATGGGCACC | 1.01 ± 0.012 |
| ACCCGATCTT | 1 ± 0.053 |
| CGAACGGTTG | 1.0261 ± 1.1e-05 |
| ACCGTCAGTG | 1 ± 0.015 |
| GTTCCGGGGA | 1.02 ± 0.016 |
| GTCGGGAGGC | 1.02 ± 0.022 |
| TTCTTAGCTT | 0.998 ± 0.019 |
| GTTGTATCGG | 0.991 ± 0.021 |
| AGTGACCCCT | 1.06 ± 0.035 |
| GAAACTGGGG | 1.02 ± 0.031 |
| TCATTAAGGG | 0.99105 ± 0.00093 |

| Sequence | switch fluorescence ratio |
| --- | --- |
| AGGGTTTGAG | 1.11 ± 0.2 |
| TAATCGATGG | 1.009 ± 0.0012 |
| CTTGGAAATA | 1.02 ± 0.013 |
| CGGCTTACGT | 0.993 ± 0.016 |
| TTTGGGGAGT | 1 ± 0.088 |
| CGGTCTGGGG | 0.981 ± 0.027 |
| CTAGCGGGGG | 0.993 ± 0.034 |
| TGTAGTAGCG | 0.9901 ± 0.0064 |
| GGGTGATTGC | 0.964 ± 0.011 |
| CAGTGTGAAG | 0.958 ± 0.016 |
| CATCCGAGGT | 1.14 ± 0.23 |
| TTAGGTACGG | 1.035 ± 0.01 |
| GCGGGCAGGA | 1.02 ± 0.021 |
| GGGTTAACGG | 1 ± 0.018 |
| TGGGGGTGTC | 1.03 ± 0.024 |
| AGGAAACGGG | 0.978 ± 0.018 |
| ACTTCAAGGG | 1.26 ± 0.34 |
| TGGCATAGTT | 0.995 ± 0.042 |
| GTTTAGGGTA | 1.01 ± 0.051 |
| CATTGGTAGT | 0.977 ± 0.035 |
| CTGGGGGTGG | 0.964 ± 0.011 |
| AGCACGCTGG | 1.029 ± 0.0042 |
| GTGGTATGTG | 0.95 ± 0.045 |
| CTGGGTATGA | 1.01 ± 0.024 |
| GTGTAAATAG | 1.01 ± 0.025 |

| Sequence | switch fluorescence ratio |
| --- | --- |
| ACCTTAGGCC | 1.07 ± 0.015 |
| TTTTGGAAAC | 1.11 ± 0.17 |
| TTTTACAGAT | 0.975 ± 0.017 |
| CACTAGAACC | 1.0319 ± 8.9e-05 |
| GGGAGAATGC | 0.939 ± 0.097 |
| AGAACTGTGA | 0.9889 ± 0.0037 |
| ACACTGTATC | 1.21 ± 0.038 |
| GACTCTATGG | 0.943 ± 0.11 |
| CATCTGGCTT | 1.0536 ± 0.00031 |
| TTTATCCCGA | 1.03 ± 0.048 |
| CGGCCCGCGA | 1.94 ± 0.96 |
| CAGTCATATT | 1.02 ± 0.034 |
| CGGGGGAGCG | 1 ± 0.045 |
| CCTGTATTTT | 1.011 ± 0.0077 |
| GTGTCCTTGG | 1.006 ± 0.0084 |
| ATTTTTTGTG | 0.9732 ± 0.0082 |
| TGTGTTATAC | 1.05 ± 0.043 |
| AATTATTTT | 0.993 ± 0.02 |
| GAATTTGTGA | 0.98 ± 0.035 |
| ACGGGTGTCC | 0.995 ± 0.066 |
| TGCGTGTCTT | 1.01 ± 0.018 |
| CATGAGATAC | 1.16 ± 0.022 |
| GGGTTGTGGA | 1 ± 0.029 |
| TGGGAAGACA | 1.06 ± 0.092 |
| ACATTCGGGC | 1.02 ± 0.041 |
